Reference: patent publication US8679765B2, “Methods and compositions for diagnosis and treatment of malignant and non-malignant gammopathies” (Ludwig Institute for Cancer Research Ltd., priority 2009, dated 2014)
Each block holds one molecule with its values, some of them ahead of it.

How the values were obtained:
[1] = test system: paratarg-specific paraprotein (patients' sera); experiment: Paraprotein binding to recombinant paratarg, stomatin family members and paratarg peptides/fragments (dot blot, ELISA, peptide spot analysis); parameters: species or system human; conditions: for recognition by paratarg-specific paraproteins / patients' serum: ELISA, Western blotting or peptide spot analysis
Protocol: 100 ng of each recombinant protein were separated by SDS-PAGE and transferred to PVDF membrane (Millipore Immobilon) by semidry blotting. The membrane was blocked in TST/milk buffer (10% milk in 10 mM Tris/HCl, pH 7.5, 150 mM NaCl, 0.1% (v/v) Tween 20) overnight, washed and incubated for 1 h with serum in TST (paraprotein patients serum at a dilution of 1:10^8 and control patients serum at a dilution of 1:10^3). After three washings in TST, the membranes were incubated for 1 h at RT with goat anti-human IgG AP-coupled antibody (Dianova) diluted 1:5,000 in TST, subsequently washed in TST followed by AP-development.
His6-tagged fusion proteins were spotted on nitrocellulose membranes. After spotting, the protein arrays were blocked, incubated and detected as described above.
The epitopes recognized by the patients' paraproteins were identified as described before (Preuss et al, 2006). In brief: matrix-bound synthesized decamer peptides with 5 amino acids overlaps between every 2nd consecutive decamer covering the entire paratarg sequence were used to screen patients sera. Paratarg-specific paraproteins binding to the corresponding paratarg epitopes were visualized by ECL technique according to the suppliers' instructions (PIERCE, Rockford, USA). Finally, matrix stripes were photographed for documentation.
Full-length paratarg was recombinantly expressed in HEK293 cells under control of CMV promoter introducing a FLAG tag at the C-terminus of the protein. Total cell extract was prepared and coated indirectly to Nunc maxisorb plates using anti-FLAG mAb (Sigma). Elisa was performed according standard protocols. Partially truncated paratarg fragments were processed accordingly.
Paratarg fragments were obtained by PCR amplification using suitable primers and verified by sequencing. These fragments were subcloned into the vector and expressed as described before.

[2] = test system: paraproteins of serum pool #1 (MGUS/MM patients' sera); experiment: Serum profiling on high density protein arrays (paraprotein screening of hEx1 human fetal brain macroarray); format: binding; parameters: key: Paraprotein-binding quality/strength are ++, + and ±.; Paraprotein-binding quality/strength are ++, + and ±.; Paraprotein-binding quality/strength are ++, + and ±; conditions: serum pool #1 (n=114), each serum diluted 1:10^8
Protocol: Screening analyses were performed on hEx1 high-density protein expression cDNA libraries, created in Hans Lehrach's laboratory at the Max Planck Institute for Molecular Genetics in Berlin (Germany) and obtained from the Reference Center of the German Human Genome Project (RZPD) (Bussow et al, 1998). These high-density filter membranes display proteins that were expressed from a modified pQE protein expression vector (Qiagen). This vector featured a hexahistidine tag, a T5 promoter and two lac operator sequences, which allowed repression during the growth phase by overexpression of the Lac repressor protein, and subsequent induction of protein expression with isopropyl-beta-D-thiogalactopyranoside (IPTG).
High density protein arrays of the protein expression set of the hEx1 library were obtained from the German Resource Center for Genome Research (RZPD) and provided by Dr. Mahlknecht from our department. They consist of 37,200 independent clones derived from a human fetal brain cDNA expression library and were used for autoantibody detection. For serum profiling, the filters were blocked in 10% (w/v) non-fat, dry milk powder in TBST (TBS, 0.1% (v/v) Tween 20) at 4° C. overnight, washed twice in TBST, and incubated for 1 h with serum pool #1 at a dilution of 1:10^8 for each serum. Following three 30-min TBST washes and subsequent incubation with the secondary antibody (goat anti-human IgG biotinylated, Dianova, diluted 1:2.500) and Strep-PDX (1:15.000) in 2% (w/v) Milk/TBST, the filters were washed three times for 30 min in TBST. This was followed by detection using Pharmacia ECL system. Positive signals were localized according to the manufacturer's protocol. Corresponding clones were obtained from RZPD.
In this study we screened a human high-density protein array containing 37,200 independent recombinant proteins derived from a human fetal brain expression library with sera obtained from patients with monoclonal gammopathy of undetermined significance (MGUS) and multiple myeloma (MM).
The signal pattern obtained from the screening with the paraprotein pools at a dilution of 1:10^8 were compared with the patterns obtained from screening with the control sera from clinically healthy donors and to background incubations. […] 5′- and 3′-tag sequencing of these clones was performed, and their sequences were used for BLAST searches against public databases at NCBI.
Using serum pool #1 (paraprotein type: 15 IgA, 88 IgG, 11 oligoclonal, n=114) we identified 14 putative paraprotein targets on the human protein filter array (FIG. 1, Tab. 1). […] Sequence searches and comparisons using the in-frame sequences identified five known proteins and one unknown gene product derived from chromosome 8.

recognition by paratarg-specific paraproteins / patients' serum [1]: no signal
Molecule: stomatin: recombinantly expressed human stomatin family member

Signal-quality (paraprotein-binding quality/strength) [2]: ++
B5: MPMGp800E08596: RZPD clone coding for paratarg (protein)
chain: MLARAARGTGALLLRGSLLASGRAPRRASSGLPRNTVVLFVPQQEAWVVERMGRFHRILEPGLNILIPVLDRIRYVQSLKEIVINVPEQSAVTLDNVTLQIDGVLYLRIMDPYKASYGVEDPEYAVTQLAQTTMRSELGKLSLDKVFRERESLNASIVDAINQAADCWGIRCLRYEIKDIHVPPRVKESMQMQVEAERRKRATVLESEGTRESAINVAEGKKQAQILASEAEKAEQINQAAGEASAVLAKAKAKAEAIRILAAALTQHNGDAAASLTVAEQYVSAFSKLAKDSNTILLPSNPGDVTSMVAQAMGVYGALTKAPVPGTPDSLSSGSSRDVQGTDASLDEELDRVKMS
modifications: left off: small tags and cut ends
notes: RZPD clone coding for paratarg

recognition by paratarg-specific paraproteins / patients' serum [1]: no signal
B6: SLP-1: recombinantly expressed human stomatin family member (protein)
chain: MLGRSGYRALPLGDFDRFQQSSFGFLGSQKGCLSPERGGVGTGADVPQSWPSCLCHGLISFLGFLLLLVTFPISGWFALKIVPTYERMIVFRLGRIRTPQGPGMVLLLPFIDSFQRVDLRTRAFNVPPCKLASKDGAVLSVGADVQFRIWDPVLSVMTVKDLNTATRMTAQNAMTKALLKRPLREIQMEKLKISDQLLLEINDVTRAWGLEVDRVELAVEAVLQPPQDSPAGPNLDSTLQQLALHFLGGSMNSMAGGAPSPGPADTVEMVSEVEPPAPQVGARSSPKQPLAEGLLTALQPFLSEALVSQVGACYQFNVVLPSGTQSAYFLDLTTGRGRVGHGVPDGIPDVVVEMAEADLRALLCRELRPLGAYMSGRLKVKGDLAMAMKLEAVLRALK

Continued, molecule first:

Molecule: SLLASGRAP [paratarg amino acid region]
recognition by paratarg-specific paraproteins / patients' serum [1]: recognized

Molecule: SLLASGRAPRRASSG [15 amino acid region near the N-terminal end of paratarg]
recognition by paratarg-specific paraproteins / patients' serum [1]: recognized by patients' serum

B1: MPMGp800P18577: RZPD clone, NM_004323.3 (protein, UniProt Q99933 1-345, looked up)
BAG family molecular …: MAQRGGARRPRGDRERLGSRLRALRPGREPRQSEPPAQRGPPPSGRPPARSTASGHDRPTRGAAAGARRPRMKKKTRRRSTRSEELTRSEELTLSEEATWSEEATQSEEATQGEEMNRSQEVTRDEESTRSEEVTREEMAAAGLTVTVTHSNEKHDLHVTSQQGSSEPVVQDLAQVVEEVIGVPQSFQKLIFKGKSLKEMETPLSALGIQDGCRVMLIGKKNSPQEEVELKKLKHLEKSVEKIADQLEELNKELTGIQQGFLPKDLQAEALCKLDRRVKATIEQFMKILEEIDTLILPENFKDSRLKRKGLVKKVQAFLAECDTVEQNICQETERLQSTNFALAE
Signal-quality (paraprotein-binding quality/strength) [2]: +

B2: MPMGp800P21581: RZPD clone, NM_001622.1 (protein, UniProt P02765 19-300; P02765 341-367, looked up)
Alpha-2-HS-glycoprotein chain … 1: APHGPGLIYRQPNCDDPETEEAALVAIDYINQNLPWGYKHTLNQIDEVKVWPQQPSGELFEIEIDTLETTCHVLDPTPVARCSVRQLKEHAVEGDCDFQLLKLDGKFSVVYAKCDSSPDSAEDVRKVCQDCPLLAPLNDTRVVHAAKAALAAFNAQNNGSNFQLEEISRAQLVPLPPSTYVEFTVSGTDCVAKEATEAAKCNLLAEKQYGFCKATLSEKLGGAEVAVTCMVFQTQPVSSQPQPEGANEAVPTPVVDPDAPPSPPLGAPGLPPAGSPPDSHVL
Alpha-2-HS-glycoprotein chain … 2: TVVQPSVGAAAGPVVPPCPGRIRHFKV
Signal-quality (paraprotein-binding quality/strength) [2]: +

B3: MPMGp800E08580: RZPD clone, NM_004819.1 (protein, UniProt Q92797 1-1274, looked up)
Symplekin: MASGSGDSVTRRSVASQFFTQEEGPGIDGMTTSERVVDLLNQAALITNDSKITVLKQVQELIINKDPTLLDNFLDEIIAFQADKSIEVRKFVIGFIEEACKRDIELLLKLIANLNMLLRDENVNVVKKAILTMTQLYKVALQWMVKSRVISELQEACWDMVSAMAGDIILLLDSDNDGIRTHAIKFVEGLIVTLSPRMADSEIPRRQEHDISLDRIPRDHPYIQYNVLWEEGKAALEQLLKFMVHPAISSINLTTALGSLANIARQRPMFMSEVIQAYETLHANLPPTLAKSQVSSVRKNLKLHLLSVLKHPASLEFQAQITTLLVDLGTPQAEIARNMPSSKDTRKRPRDDSDSTLKKMKLEPNLGEDDEDKDLEPGPSGTSKASAQISGQSDTDITAEFLQPLLTPDNVANLVLISMVYLPEAMPASFQAIYTPVESAGTEAQIKHLARLMATQMTAAGLGPGVEQTKQCKEEPKEEKVVKTESVLIKRRLSAQGQAISVVGSLSSMSPLEEEAPQAKRRPEPIIPVTQPRLAGAGGRKKIFRLSDVLKPLTDAQVEAMKLGAVKRILRAEKAVACSGAAQVRIKILASLVTQFNSGLKAEVLSFILEDVRARLDLAFAWLYQEYNAYLAAGASGSLDKYEDCLIRLLSGLQEKPDQKDGIFTKVVLEAPLITESALEVVRKYCEDESRTYLGMSTLRDLIFKRPSRQFQYLHVLLDLSSHEKDKVRSQALLFIKRMYEKEQLREYVEKFALNYLQLLVHPNPPSVLFGADKDTEVAAPWTEETVKQCLYLYLALLPQNHKLIHELAAVYTEAIADIKRTVLRVIEQPIRGMGMNSPELLLLVENCPKGAETLVTRCLHSLTDKVPPSPELVKRVRDLYHKRLPDVRFLIPVLNGLEKKEVIQALPKLIKLNPIVVKEVFNRLLGTQHGEGNSALSPLNPGELLIALHNIDSVKCDMKSIIKATNLCFAERNVYTSEVLAVVMQQLMEQSPLPMLLMRTVIQSLTMYPRLGGFVMNILSRLIMKQVWKYPKVWEGFIKCCQRTKPQSFQVILQLPPQQLGAVFDKCPELREPLLAHVRSFTPHQQAHIPNSIMTILEASGKQEPEAKEAPAGPLEEDDLEPLTLAPAPAPRPPQDLIGLRLAQEKALKRQLEEEQKLKPGGVGAPSSSSPSPSPSARPGPPPSEEAMDFREEGPECETPGIFISMDDDSGLTEAALLDSSLEGPLPKETAAGGLTLKEERSPQTLAPVGEDAMKTPSPAAEDAREPEAKGNS
Signal-quality (paraprotein-binding quality/strength) [2]: +

B4: paratarg: stomatin-like protein 2 (SLP-2), SEQ ID NO: 1, antigenic paraprotein target (protein, listed as Homo sapiens)
chain: B5 chain
serum dilution at which recognition was detectable ([1]; individual patient sera): 10^10
titer of paraprotein-containing sera reacting with the antigen ([1]; sera of more than two patients): > 10^8
